According to article PMC8294587, “Intrinsic differences in the mechanisms of Tie2 binding to angiopoietins exploited by directed evolution to create an Ang2-selective ligand trap” (The Journal of Biological Chemistry, 2021):

T1: Angiopoietin-2 (UniProt O15123 19-496)
T1 construct: recombinant Ang2; the residue numbers printed for Ang2 (Asp448, Phe469, Ser480) come from the cited structure 2GY7; also called Ang2; source: recombinant
T1 sequence (looked up): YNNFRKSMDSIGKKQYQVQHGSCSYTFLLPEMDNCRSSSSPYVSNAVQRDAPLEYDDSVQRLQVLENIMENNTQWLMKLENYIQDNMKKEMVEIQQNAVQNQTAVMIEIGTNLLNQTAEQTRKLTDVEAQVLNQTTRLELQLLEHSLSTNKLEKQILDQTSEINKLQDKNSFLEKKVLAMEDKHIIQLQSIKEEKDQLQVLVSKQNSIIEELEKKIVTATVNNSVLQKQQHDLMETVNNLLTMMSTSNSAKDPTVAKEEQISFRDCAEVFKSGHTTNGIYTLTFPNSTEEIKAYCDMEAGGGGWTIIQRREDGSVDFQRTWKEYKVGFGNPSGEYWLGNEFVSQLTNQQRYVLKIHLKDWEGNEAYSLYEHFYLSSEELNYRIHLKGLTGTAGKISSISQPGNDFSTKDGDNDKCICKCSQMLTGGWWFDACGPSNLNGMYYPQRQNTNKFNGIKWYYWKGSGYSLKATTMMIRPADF

T2: Angiopoietin-1 (UniProt Q15389 16-498)
T2 construct: recombinant Ang1; the residue numbers printed for Ang1 (Gln415, Asp450, Leu471, Tyr478) come from the cited structure 4K0V; also called Ang1; source: recombinant
T2 sequence (looked up): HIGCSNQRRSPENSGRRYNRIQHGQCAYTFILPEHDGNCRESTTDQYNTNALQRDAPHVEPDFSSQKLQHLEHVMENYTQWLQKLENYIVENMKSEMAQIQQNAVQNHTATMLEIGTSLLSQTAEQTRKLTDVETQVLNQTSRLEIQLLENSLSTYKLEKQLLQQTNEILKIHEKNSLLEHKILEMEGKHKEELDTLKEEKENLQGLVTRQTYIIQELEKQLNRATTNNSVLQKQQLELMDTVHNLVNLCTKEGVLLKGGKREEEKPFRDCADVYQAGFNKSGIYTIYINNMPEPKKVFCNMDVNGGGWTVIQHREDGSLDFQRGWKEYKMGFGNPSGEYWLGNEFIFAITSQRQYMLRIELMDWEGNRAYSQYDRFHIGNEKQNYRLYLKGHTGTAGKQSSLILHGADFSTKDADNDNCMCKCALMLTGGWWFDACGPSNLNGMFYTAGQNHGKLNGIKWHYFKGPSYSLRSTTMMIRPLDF


How the values were obtained:
Experiment in all cases: ELISA; recombinant Ang1 or Ang2 immobilised on Maxisorp plates, blocked with TBS, 0.1% Triton-X100, 5% milk powder; Tie2 ectodomain proteins bound for 1 h; detected with anti-Tie2 ectodomain antibodies; EC50 = concentration of ectodomain for 50% of maximal binding
Settings in all cases: both partners purified
Angiopoietin-2 [1] = molecular target: T1, Angiopoietin-2
Angiopoietin-1 = molecular target: T2, Angiopoietin-1
Angiopoietin-2 [2] = molecular target: T1, Angiopoietin-2; remark: listed apart in the source

Binder | EC50 (Angiopoietin-2 [1]) [nM] | EC50 (Angiopoietin-1) [nM] | EC50 (Angiopoietin-2 [2]) [nM]
R5 Tie2 ectodomain-Fc (Phe161Ile, deletion of Arg167 and His168, Ser164Leu, Pro171Ser) (Fc fusion, human, UniProt Q02763 23-442, looked up, signal peptide in the construct; Tie2 ectodomain, human, residues 1-442, variant from directed evolution; also called R5-Fc; evolved ectodomain; source: Hek293, transfected, purified from culture medium (nickel chromatography); not shown: Fc (fragment of human Fc immunoglobulin domain, after a GS4 linker), C-terminal, kept) AMDLILINSLPLVSDAETSLTCIASGWRPHEPITIGRDFEALMNQHQDPLEVTQDVTREWAKKVVWKREKASKINGAYFCEGRVRGEAIRIRTMKMRQQASFLPATLTMTVDKGDNVNISFKKVLIKEEDAVIYKNGSIIHLVPEVSDILEVHLPHAQPQDAGVYSARYIGGNLFTSAFTRLIVRRCEAQKWGPECNHLCTACMNNGVCHEDTGECICPPGFMGRTCEKACELHTFGRTCKERCSGQEGCKSYVFCLPDPYGCSCATGWKGLQCNEACHPGFYGPDCKLRCSCNNGEMCDRFQGCLCSPGWQGLQCEREGIQRMTPKIVDLPDHIEVNSGKFNPICKASGWPLPTNEEMTLVKPDGTVLHPKDFNHTDHFSVAIFTIHRILPPDSGVWVCSVNTVAGMVEKPFNISVK | 3.4 |  | 
wild-type Tie2 ectodomain-Fc (Fc fusion, human, UniProt Q02763 23-442, looked up, signal peptide in the construct; Tie2 ectodomain, human, residues 1-442; Order on the chain: Tie2 1-442, GS4 linker, human Fc fragment, His6; also called Wt; Wt-Tie2; source: Hek293, transfected, purified from culture medium (nickel chromatography); not shown: Fc (fragment of human Fc immunoglobulin domain, after a GS4 linker), C-terminal, kept) AMDLILINSLPLVSDAETSLTCIASGWRPHEPITIGRDFEALMNQHQDPLEVTQDVTREWAKKVVWKREKASKINGAYFCEGRVRGEAIRIRTMKMRQQASFLPATLTMTVDKGDNVNISFKKVLIKEEDAVIYKNGSFIHSVPRHEVPDILEVHLPHAQPQDAGVYSARYIGGNLFTSAFTRLIVRRCEAQKWGPECNHLCTACMNNGVCHEDTGECICPPGFMGRTCEKACELHTFGRTCKERCSGQEGCKSYVFCLPDPYGCSCATGWKGLQCNEACHPGFYGPDCKLRCSCNNGEMCDRFQGCLCSPGWQGLQCEREGIQRMTPKIVDLPDHIEVNSGKFNPICKASGWPLPTNEEMTLVKPDGTVLHPKDFNHTDHFSVAIFTIHRILPPDSGVWVCSVNTVAGMVEKPFNISVK |  | 0.66 | 1.37
Tie2 ectodomain-Fc R167A (Fc fusion, human, UniProt Q02763 23-442, looked up, signal peptide in the construct; Tie2 ectodomain, human, residues 1-442; also called Arg167Ala; source: Hek293, transfected, purified from culture medium (nickel chromatography); not shown: Fc (fragment of human Fc immunoglobulin domain, after a GS4 linker), C-terminal, kept) AMDLILINSLPLVSDAETSLTCIASGWRPHEPITIGRDFEALMNQHQDPLEVTQDVTREWAKKVVWKREKASKINGAYFCEGRVRGEAIRIRTMKMRQQASFLPATLTMTVDKGDNVNISFKKVLIKEEDAVIYKNGSFIHSVPAHEVPDILEVHLPHAQPQDAGVYSARYIGGNLFTSAFTRLIVRRCEAQKWGPECNHLCTACMNNGVCHEDTGECICPPGFMGRTCEKACELHTFGRTCKERCSGQEGCKSYVFCLPDPYGCSCATGWKGLQCNEACHPGFYGPDCKLRCSCNNGEMCDRFQGCLCSPGWQGLQCEREGIQRMTPKIVDLPDHIEVNSGKFNPICKASGWPLPTNEEMTLVKPDGTVLHPKDFNHTDHFSVAIFTIHRILPPDSGVWVCSVNTVAGMVEKPFNISVK |  | 26.6 | 10.3

Next, values leading:

EC50 (Angiopoietin-2 [1]) [nM] | EC50 (Angiopoietin-1) [nM] | EC50 (Angiopoietin-2 [2]) [nM] | Binder
 | 14.3 | 77.7 | Tie2 ectodomain-Fc V165A (Fc fusion, human, UniProt Q02763 23-442, looked up, signal peptide in the construct; Tie2 ectodomain, human, residues 1-442; source: Hek293, transfected, purified from culture medium (nickel chromatography); not shown: Fc (fragment of human Fc immunoglobulin domain, after a GS4 linker), C-terminal, kept) AMDLILINSLPLVSDAETSLTCIASGWRPHEPITIGRDFEALMNQHQDPLEVTQDVTREWAKKVVWKREKASKINGAYFCEGRVRGEAIRIRTMKMRQQASFLPATLTMTVDKGDNVNISFKKVLIKEEDAVIYKNGSFIHSAPRHEVPDILEVHLPHAQPQDAGVYSARYIGGNLFTSAFTRLIVRRCEAQKWGPECNHLCTACMNNGVCHEDTGECICPPGFMGRTCEKACELHTFGRTCKERCSGQEGCKSYVFCLPDPYGCSCATGWKGLQCNEACHPGFYGPDCKLRCSCNNGEMCDRFQGCLCSPGWQGLQCEREGIQRMTPKIVDLPDHIEVNSGKFNPICKASGWPLPTNEEMTLVKPDGTVLHPKDFNHTDHFSVAIFTIHRILPPDSGVWVCSVNTVAGMVEKPFNISVK
 | 1.38 | 5.88 | Tie2 ectodomain-Fc H163A (Fc fusion, human, UniProt Q02763 23-442, looked up, signal peptide in the construct; Tie2 ectodomain, human, residues 1-442; source: Hek293, transfected, purified from culture medium (nickel chromatography); not shown: Fc (fragment of human Fc immunoglobulin domain, after a GS4 linker), C-terminal, kept) AMDLILINSLPLVSDAETSLTCIASGWRPHEPITIGRDFEALMNQHQDPLEVTQDVTREWAKKVVWKREKASKINGAYFCEGRVRGEAIRIRTMKMRQQASFLPATLTMTVDKGDNVNISFKKVLIKEEDAVIYKNGSFIASVPRHEVPDILEVHLPHAQPQDAGVYSARYIGGNLFTSAFTRLIVRRCEAQKWGPECNHLCTACMNNGVCHEDTGECICPPGFMGRTCEKACELHTFGRTCKERCSGQEGCKSYVFCLPDPYGCSCATGWKGLQCNEACHPGFYGPDCKLRCSCNNGEMCDRFQGCLCSPGWQGLQCEREGIQRMTPKIVDLPDHIEVNSGKFNPICKASGWPLPTNEEMTLVKPDGTVLHPKDFNHTDHFSVAIFTIHRILPPDSGVWVCSVNTVAGMVEKPFNISVK
